Sequences and labels used below:
B3: GST-Lge1-StrepII (natural protein, S. cerevisiae, UniProt Q02796 1-332, looked up)
chain: MSGYTGNNYSRYSSTPPRQRGGYHHARRSRGGAGGSYYRGGNASYGARYNSDYEQPPQEGDLRQTGAYYRNGYTDTRPYYSANSRHYQAQPSPRYNNGTNSYHLPQRGNSQDTNGRTTSASQEDNDEKRVKSRYRNMQADHPRQQPMSVGSTSSRNGSSGNSSTSSTSNGLPPPPSVSSITNNRSYHSSAYPYSSSHTYNNYHHRETPPPPPSNGYYAKGYPVHVPENRSNSDGSSSSVVKKKRILDMKDSPFIYLTDFDKNVKKTNNTESECEKAREVFKESDSIDSALEELNLKINSNELELRLLNNQCDKHALNIQLTQEKLDSLLLMQ

The series “co-sedimentation” concerns the molecule itself. Nature of the series: co-sedimentation.
For a further series, the target named is T1, StrepII-Bre1 (S. cerevisiae, UniProt Q07457 1-700).
T1 sequence (looked up): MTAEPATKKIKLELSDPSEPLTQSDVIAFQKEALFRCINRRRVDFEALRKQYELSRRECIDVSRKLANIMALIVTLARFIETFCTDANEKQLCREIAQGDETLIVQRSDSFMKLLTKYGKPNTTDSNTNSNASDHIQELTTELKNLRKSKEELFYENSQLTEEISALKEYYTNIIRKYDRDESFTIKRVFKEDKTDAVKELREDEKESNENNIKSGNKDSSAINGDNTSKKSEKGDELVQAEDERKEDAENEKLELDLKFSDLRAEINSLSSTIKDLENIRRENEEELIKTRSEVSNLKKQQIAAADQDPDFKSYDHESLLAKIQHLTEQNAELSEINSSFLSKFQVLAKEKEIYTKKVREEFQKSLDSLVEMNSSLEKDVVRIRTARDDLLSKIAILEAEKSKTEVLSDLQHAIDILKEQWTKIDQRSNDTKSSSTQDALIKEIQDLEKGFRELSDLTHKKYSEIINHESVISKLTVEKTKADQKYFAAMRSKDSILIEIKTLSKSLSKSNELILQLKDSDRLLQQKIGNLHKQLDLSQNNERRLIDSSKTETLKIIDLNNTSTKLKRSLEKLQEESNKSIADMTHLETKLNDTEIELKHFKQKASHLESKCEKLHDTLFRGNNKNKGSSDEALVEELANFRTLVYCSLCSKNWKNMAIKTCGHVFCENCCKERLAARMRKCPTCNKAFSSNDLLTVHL
In words: pull-down.

The target of a further series is T2, StrepII-mGFP-Bre1 (S. cerevisiae, UniProt Q07457 1-700).
T2 sequence (looked up): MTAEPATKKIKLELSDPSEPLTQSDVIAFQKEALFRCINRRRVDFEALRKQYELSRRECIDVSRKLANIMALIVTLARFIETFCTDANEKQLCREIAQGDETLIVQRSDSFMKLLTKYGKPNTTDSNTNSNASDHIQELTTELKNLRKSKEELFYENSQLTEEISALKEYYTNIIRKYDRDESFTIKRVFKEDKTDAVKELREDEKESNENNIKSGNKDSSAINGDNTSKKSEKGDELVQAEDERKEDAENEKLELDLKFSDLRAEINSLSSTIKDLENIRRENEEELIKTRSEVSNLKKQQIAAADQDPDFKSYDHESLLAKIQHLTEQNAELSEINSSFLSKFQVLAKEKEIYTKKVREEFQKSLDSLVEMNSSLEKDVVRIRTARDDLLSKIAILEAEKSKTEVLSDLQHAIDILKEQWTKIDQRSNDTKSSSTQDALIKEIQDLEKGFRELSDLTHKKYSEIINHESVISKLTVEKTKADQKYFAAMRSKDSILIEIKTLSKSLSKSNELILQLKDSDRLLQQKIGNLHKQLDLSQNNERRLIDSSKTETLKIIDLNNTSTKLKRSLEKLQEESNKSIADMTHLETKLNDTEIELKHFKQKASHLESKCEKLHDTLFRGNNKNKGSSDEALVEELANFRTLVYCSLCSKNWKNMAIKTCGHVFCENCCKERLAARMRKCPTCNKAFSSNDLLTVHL
Nature of the series: recruitment to reconstituted condensates.

For the series “GST-Lge1-StrepII”, the target named is B3. In words: pull-down.
The target in the next series is T3, 6His-Lge1-StrepII (S. cerevisiae, UniProt Q02796 1-332).
T3 sequence (looked up): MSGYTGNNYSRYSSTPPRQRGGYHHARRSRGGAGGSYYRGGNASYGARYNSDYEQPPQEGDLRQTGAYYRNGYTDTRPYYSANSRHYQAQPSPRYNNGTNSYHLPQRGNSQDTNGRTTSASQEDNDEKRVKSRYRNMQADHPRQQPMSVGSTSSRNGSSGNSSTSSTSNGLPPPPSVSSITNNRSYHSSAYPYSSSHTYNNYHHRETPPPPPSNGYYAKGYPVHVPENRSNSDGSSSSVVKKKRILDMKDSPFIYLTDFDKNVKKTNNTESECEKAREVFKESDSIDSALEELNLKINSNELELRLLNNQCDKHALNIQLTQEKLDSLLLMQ
Nature of the series: recruitment to reconstituted condensates.

Here are results for six molecules from paper PMC7481934 (Nature, 2020).

B1: GST-Lge1 IDR-StrepII (domain or fragment, S. cerevisiae, UniProt Q02796 1-242, looked up)
chain: MSGYTGNNYSRYSSTPPRQRGGYHHARRSRGGAGGSYYRGGNASYGARYNSDYEQPPQEGDLRQTGAYYRNGYTDTRPYYSANSRHYQAQPSPRYNNGTNSYHLPQRGNSQDTNGRTTSASQEDNDEKRVKSRYRNMQADHPRQQPMSVGSTSSRNGSSGNSSTSSTSNGLPPPPSVSSITNNRSYHSSAYPYSSSHTYNNYHHRETPPPPPSNGYYAKGYPVHVPENRSNSDGSSSSVVKK
For the molecule B1, the binding result in “co-sedimentation” is given as “binds”.

B2: GST-Lge1 CC-StrepII (domain or fragment, S. cerevisiae, UniProt Q02796 243-332, looked up)
chain: KRILDMKDSPFIYLTDFDKNVKKTNNTESECEKAREVFKESDSIDSALEELNLKINSNELELRLLNNQCDKHALNIQLTQEKLDSLLLMQ
On to B2, for which, in the series with StrepII-Bre1, the binding result is on record as “binds”.
For B3, the binding result with StrepII-Bre1 is given as “binds”.

B4: Pacific Blue-labelled 6His-TEV-Rad6 (enzyme, S. cerevisiae, UniProt P06104 1-172, looked up)
chain: MSTPARRRLMRDFKRMKEDAPPGVSASPLPDNVMVWNAMIIGPADTPYEDGTFRLLLEFDEEYPNKPPHVKFLSEMFHPNVYANGEICLDILQNRWTPTYDVASILTSIQSLFNDPNPASPANVEAATLFKDHKSQYVKRVKETVEKSWEDDMDDMDDDDDDDDDDDDDEAD
modifications: Pacific Blue C5-Maleimide label
For B4, in the series with StrepII-mGFP-Bre1, the binding result was “binds”.

B5: StrepII-Bre1 Lge1 Binding Domain (residues 308-632) (domain or fragment, S. cerevisiae, UniProt Q07457 308-632, looked up)
chain: QDPDFKSYDHESLLAKIQHLTEQNAELSEINSSFLSKFQVLAKEKEIYTKKVREEFQKSLDSLVEMNSSLEKDVVRIRTARDDLLSKIAILEAEKSKTEVLSDLQHAIDILKEQWTKIDQRSNDTKSSSTQDALIKEIQDLEKGFRELSDLTHKKYSEIINHESVISKLTVEKTKADQKYFAAMRSKDSILIEIKTLSKSLSKSNELILQLKDSDRLLQQKIGNLHKQLDLSQNNERRLIDSSKTETLKIIDLNNTSTKLKRSLEKLQEESNKSIADMTHLETKLNDTEIELKHFKQKASHLESKCEKLHDTLFRGNNKNKGSSD
On to B5, for which, in the series with GST-Lge1-StrepII, the binding result is given as “binds”.

B6: StrepII-mGFP-Bre1 LBD (domain or fragment, S. cerevisiae, UniProt Q07457 308-632, looked up)
chain: QDPDFKSYDHESLLAKIQHLTEQNAELSEINSSFLSKFQVLAKEKEIYTKKVREEFQKSLDSLVEMNSSLEKDVVRIRTARDDLLSKIAILEAEKSKTEVLSDLQHAIDILKEQWTKIDQRSNDTKSSSTQDALIKEIQDLEKGFRELSDLTHKKYSEIINHESVISKLTVEKTKADQKYFAAMRSKDSILIEIKTLSKSLSKSNELILQLKDSDRLLQQKIGNLHKQLDLSQNNERRLIDSSKTETLKIIDLNNTSTKLKRSLEKLQEESNKSIADMTHLETKLNDTEIELKHFKQKASHLESKCEKLHDTLFRGNNKNKGSSD
Turning to B6, in the series with 6His-Lge1-StrepII, the binding result is “binds”.
